Reference: US20140227287A1

Target: human βNGF (R&D Systems, Inc.) (human) (UniProt P01138)
Assay: dynamic light scattering of antibody incubated with human βNGF

Chain of human βNGF (R&D Systems, Inc.) (human) (P01138 122-241 limits assumed): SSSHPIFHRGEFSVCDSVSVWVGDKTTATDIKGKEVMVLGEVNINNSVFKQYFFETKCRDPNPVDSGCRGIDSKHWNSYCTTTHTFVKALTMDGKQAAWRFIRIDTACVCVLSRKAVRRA

- Particle size Average (d · nm), IgG + rhNGF: 12.6 nm·days
- Particle size Peak (d · nm), IgG + rhNGF: 11.7 nm·days
Substance: Control IgG (antibody)
